Results: the Human Domainome abundance scans (Beltran et al. 2025)
± gives the uncertainty stated by the source.

B1: Histone-lysine N-methyltransferase SETD2, residues 2382 to 2430; numbered along this chain, Q9BYW2 (parent)
chain: SPPKPKTIVLPPNWKTARDPEGKIYYYHVITRQTQWDPPTWESPGDDAS

Variants of: B1
Assay: abundance fitness (aPCA) (normalised: wild type 0, dead -1); higher = more abundant; growth selection in yeast, the domain comes from the species named
Conditions: Homo sapiens
For D37T, the abundance fitness was 0.117 ± 0.062.
In the case of D37L, the abundance fitness is reported as -0.159 ± 0.036.
With D37Q the abundance fitness was -0.235 ± 0.072.
For T31R, the abundance fitness was -0.502 ± 0.037.
Variant T31W has an abundance fitness of -1.06 ± 0.077.
Work on T31D yielded an abundance fitness of -0.724 ± 0.25.
Work on T31E yielded an abundance fitness of -0.735 ± 0.048.
With R32E the abundance fitness was -0.197 ± 0.085.
For R32N, the abundance fitness was 0.031 ± 0.1.
For R32Y, the abundance fitness was -0.215 ± 0.091.
With R32A the abundance fitness was -0.304 ± 0.063.
For R32G, the abundance fitness was -0.173 ± 0.042.
Work on R32W yielded an abundance fitness of -0.848 ± 0.05.
Y26F showed an abundance fitness of -0.315 ± 0.12.
Y26N gave an abundance fitness of -0.517 ± 0.24.
Y26G gave an abundance fitness of -0.934 ± 0.1.
Work on Y26T yielded an abundance fitness of -0.637 ± 0.15.
Work on V29E yielded an abundance fitness of 0.139 ± 0.057.
Work on V29M yielded an abundance fitness of 0.079 ± 0.087.
Work on G45T yielded an abundance fitness of -0.141 ± 0.073.
Work on G45Y yielded an abundance fitness of 0.049 ± 0.081.
In the case of W36L, the abundance fitness is reported as -0.082 ± 0.032.
W36Q gave an abundance fitness of -0.139 ± 0.048.
With W36C the abundance fitness was -0.08 ± 0.045.
Variant W36D has an abundance fitness of -0.015 ± 0.032.
With Q35K the abundance fitness was -0.351 ± 0.1.
Q35A showed an abundance fitness of -0.155 ± 0.053.
E42T showed an abundance fitness of -0.341 ± 0.098.
With E42S the abundance fitness was 0.011 ± 0.062.
In the case of E42Q, the abundance fitness is reported as -0.291 ± 0.066.
With E42A the abundance fitness was -0.148 ± 0.065.
In the case of E42C, the abundance fitness is reported as -0.303 ± 0.053.
E42V showed an abundance fitness of -0.141 ± 0.048.
Work on P38N yielded an abundance fitness of -0.651 ± 0.33.
P38D showed an abundance fitness of -0.836 ± 0.15.
P38G gave an abundance fitness of -0.693 ± 0.051.
For P38Y, the abundance fitness was -0.228 ± 0.11.
In the case of P38C, the abundance fitness is reported as -0.221 ± 0.11.
Work on H28A yielded an abundance fitness of -1.06 ± 0.072.
In the case of H28F, the abundance fitness is reported as -0.94 ± 0.37.
Work on H28N yielded an abundance fitness of 0.023 ± 0.19.
H28Y gave an abundance fitness of -0.6 ± 0.33.
In the case of T34L, the abundance fitness is reported as -0.342 ± 0.047.
T34E showed an abundance fitness of -0.394 ± 0.062.
T34Q showed an abundance fitness of -0.111 ± 0.042.
In the case of P11I, the abundance fitness is reported as -0.84 ± 0.39.
For P11K, the abundance fitness was -0.281 ± 0.055.
P39M showed an abundance fitness of -0.908 ± 0.17.
P39R gave an abundance fitness of -0.96 ± 0.13.
With P39I the abundance fitness was -0.835 ± 0.22.
Variant P39E has an abundance fitness of -1 ± 0.21.
Work on W14T yielded an abundance fitness of -0.935 ± 0.19.
With W14Y the abundance fitness was -0.566 ± 0.42.
W14Q gave an abundance fitness of -0.763 ± 0.24.
In the case of T7A, the abundance fitness is reported as 0.028 ± 0.031.
Variant T7H has an abundance fitness of 0.116 ± 0.12.
For T7Y, the abundance fitness was -0.155 ± 0.15.
T7Q showed an abundance fitness of 0.013 ± 0.089.
In the case of T40S, the abundance fitness is reported as 0.062 ± 0.056.
In the case of T40P, the abundance fitness is reported as 0.017 ± 0.076.
For T40I, the abundance fitness was -0.629 ± 0.17.
With T40W the abundance fitness was -0.232 ± 0.035.
S49P gave an abundance fitness of 0.043 ± 0.05.
With S49Y the abundance fitness was -0.194 ± 0.067.
In the case of S49V, the abundance fitness is reported as -0.62 ± 0.19.
In the case of Y27E, the abundance fitness is reported as -0.3 ± 0.038.
With Y27F the abundance fitness was -0.487 ± 0.15.
For Y27G, the abundance fitness was -0.747 ± 0.067.
W41R showed an abundance fitness of 0.091 ± 0.036.
Work on W41Y yielded an abundance fitness of 0.338 ± 0.084.
Work on W41Q yielded an abundance fitness of 0.249 ± 0.04.
W41I showed an abundance fitness of 0.05 ± 0.069.
Work on W41K yielded an abundance fitness of 0.165 ± 0.041.
With K4Q the abundance fitness was -0.541 ± 0.13.
For K4R, the abundance fitness was -0.532 ± 0.057.
K4Y showed an abundance fitness of -0.046 ± 0.086.
In the case of K4V, the abundance fitness is reported as -0.573 ± 0.086.
Variant P3A has an abundance fitness of -0.191 ± 0.076.
Variant P3G has an abundance fitness of 0.129 ± 0.055.
Variant P3V has an abundance fitness of 0.444 ± 0.066.
P3Q gave an abundance fitness of 0.262 ± 0.04.
L10G showed an abundance fitness of -0.564 ± 0.035.
For L10V, the abundance fitness was -0.242 ± 0.042.
For L10D, the abundance fitness was -0.489 ± 0.15.
In the case of R18H, the abundance fitness is reported as -0.286 ± 0.26.
Variant R18V has an abundance fitness of -0.26 ± 0.066.
For R18S, the abundance fitness was -0.543 ± 0.035.
In the case of R18P, the abundance fitness is reported as -0.576 ± 0.17.
P20C showed an abundance fitness of -0.348 ± 0.043.
Work on P20M yielded an abundance fitness of -0.078 ± 0.034.
Work on P20Q yielded an abundance fitness of 0.015 ± 0.045.
Work on P20W yielded an abundance fitness of -0.367 ± 0.054.
P20L gave an abundance fitness of -0.223 ± 0.032.
Work on P20D yielded an abundance fitness of -0.122 ± 0.038.
With P20A the abundance fitness was -0.166 ± 0.031.
In the case of I8C, the abundance fitness is reported as 0.105 ± 0.067.
In the case of I8M, the abundance fitness is reported as 0.179 ± 0.096.
With I8L the abundance fitness was 0.165 ± 0.035.
S43N gave an abundance fitness of -0.369 ± 0.13.
For S43K, the abundance fitness was 0.145 ± 0.042.
K23G showed an abundance fitness of -0.243 ± 0.035.
For K23M, the abundance fitness was -0.514 ± 0.08.
K23E showed an abundance fitness of -0.433 ± 0.12.
Variant K23V has an abundance fitness of -0.303 ± 0.054.
K23D showed an abundance fitness of -0.493 ± 0.047.
In the case of Q33P, the abundance fitness is reported as -0.904 ± 0.075.
Q33V showed an abundance fitness of -0.251 ± 0.038.
Q33R gave an abundance fitness of -0.318 ± 0.056.
Q33W showed an abundance fitness of -0.751 ± 0.054.
Variant P44H has an abundance fitness of 0.036 ± 0.097.
For P44W, the abundance fitness was -0.283 ± 0.072.
D46C showed an abundance fitness of -0.31 ± 0.042.
Variant D46P has an abundance fitness of -0.069 ± 0.044.
D46F gave an abundance fitness of -0.361 ± 0.13.
In the case of D46E, the abundance fitness is reported as -0.117 ± 0.068.
Work on I24T yielded an abundance fitness of -0.228 ± 0.41.
With T16I the abundance fitness was -0.15 ± 0.075.
Work on T16S yielded an abundance fitness of 0.168 ± 0.035.
T16H showed an abundance fitness of 0.095 ± 0.11.
Work on E21F yielded an abundance fitness of -0.115 ± 0.17.
Variant E21M has an abundance fitness of -0.059 ± 0.06.
For D19V, the abundance fitness was -0.404 ± 0.048.
Work on D19M yielded an abundance fitness of -0.172 ± 0.089.
In the case of D19E, the abundance fitness is reported as -0.314 ± 0.08.
With D47C the abundance fitness was -0.206 ± 0.072.
Variant D47F has an abundance fitness of -0.443 ± 0.1.
For P5R, the abundance fitness was -0.006 ± 0.035.
With P5W the abundance fitness was -0.63 ± 0.12.
In the case of P5D, the abundance fitness is reported as 0.133 ± 0.082.
Variant P5T has an abundance fitness of 0.211 ± 0.045.
For P5F, the abundance fitness was 0.133 ± 0.078.
With Y25C the abundance fitness was -0.538 ± 0.077.
In the case of Y25S, the abundance fitness is reported as -0.628 ± 0.066.
Y25L showed an abundance fitness of -0.358 ± 0.047.
Work on A17N yielded an abundance fitness of 0.038 ± 0.14.
For A17Y, the abundance fitness was -0.128 ± 0.07.
For A17S, the abundance fitness was -0.155 ± 0.058.
Variant I30P has an abundance fitness of -0.08 ± 0.042.
I30W showed an abundance fitness of -0.447 ± 0.09.
In the case of I30H, the abundance fitness is reported as -0.068 ± 0.088.
Work on N13S yielded an abundance fitness of -0.362 ± 0.078.
For N13D, the abundance fitness was -0.059 ± 0.075.
N13P showed an abundance fitness of -0.692 ± 0.084.
N13C gave an abundance fitness of -0.292 ± 0.056.
P12S gave an abundance fitness of -0.195 ± 0.08.
Work on P12Q yielded an abundance fitness of -0.238 ± 0.09.
For P12A, the abundance fitness was 0.153 ± 0.048.
Variant P12F has an abundance fitness of -0.402 ± 0.13.
In the case of K15R, the abundance fitness is reported as 0.11 ± 0.39.
P2Q gave an abundance fitness of -0.007 ± 0.033.
Variant P2H has an abundance fitness of 0.314 ± 0.17.
P2K gave an abundance fitness of -0.087 ± 0.054.
For P2T, the abundance fitness was 0.178 ± 0.034.
Variant G22K has an abundance fitness of -0.482 ± 0.076.
G22F gave an abundance fitness of -0.733 ± 0.36.
In the case of G22D, the abundance fitness is reported as -0.128 ± 0.079.
Work on G22R yielded an abundance fitness of -0.607 ± 0.059.
G22W gave an abundance fitness of -0.224 ± 0.093.
A48P showed an abundance fitness of 0.08 ± 0.072.
V9I showed an abundance fitness of 0.132 ± 0.075.
With V9T the abundance fitness was 0.123 ± 0.033.
For V9A, the abundance fitness was -0.187 ± 0.045.
In the case of V9H, the abundance fitness is reported as -0.068 ± 0.095.
Work on V9N yielded an abundance fitness of 0.21 ± 0.11.
K6M gave an abundance fitness of 0.018 ± 0.048.
For K6C, the abundance fitness was -0.303 ± 0.091.
With K6Q the abundance fitness was 0.07 ± 0.034.
